The values below come from PMC8769072, “Proteome‐scale mapping of binding sites in the unstructured regions of the human proteome” (Molecular Systems Biology, 2022).

Common to all, as to test: fluorescence polarisation; competition: unlabelled peptide in serial dilution displaces a FITC-labelled probe peptide from the bait domain (master mix with protein at four times the KD of the probe, 10 nM probe, 2 mM DTT); 50 mM KPO4 or NaPO4 pH 7.5; triplicates; probe for KEAP1 Kelch: FITC-NFE2L1 228-243, other probes in Dataset EV6
What all share (details): both partners purified

Assay [1] concerns the target T1, 14‐3‐3 SFN, tag cleaved, for affinity measurements (human).
T1 chain: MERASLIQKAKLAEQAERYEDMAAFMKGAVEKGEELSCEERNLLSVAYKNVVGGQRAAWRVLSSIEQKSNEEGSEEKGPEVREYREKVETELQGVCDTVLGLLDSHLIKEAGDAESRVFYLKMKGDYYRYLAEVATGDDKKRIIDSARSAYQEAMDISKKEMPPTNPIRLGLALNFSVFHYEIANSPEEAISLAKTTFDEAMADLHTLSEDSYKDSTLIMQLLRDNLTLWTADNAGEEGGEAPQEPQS

Assay [2] has as its target KEAP1 Kelch, MBP‐tagged domain, for affinity measurements (human).
Assay [3] deals with T2, TLN1 PTB, tag cleaved, for affinity measurements (human).
T2 chain: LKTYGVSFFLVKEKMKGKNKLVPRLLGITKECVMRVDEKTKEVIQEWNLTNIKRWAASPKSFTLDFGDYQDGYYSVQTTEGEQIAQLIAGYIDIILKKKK

Sequence of KEAP1 Kelch, MBP‐tagged domain, for affinity measurements (human) (chain, as listed by the source): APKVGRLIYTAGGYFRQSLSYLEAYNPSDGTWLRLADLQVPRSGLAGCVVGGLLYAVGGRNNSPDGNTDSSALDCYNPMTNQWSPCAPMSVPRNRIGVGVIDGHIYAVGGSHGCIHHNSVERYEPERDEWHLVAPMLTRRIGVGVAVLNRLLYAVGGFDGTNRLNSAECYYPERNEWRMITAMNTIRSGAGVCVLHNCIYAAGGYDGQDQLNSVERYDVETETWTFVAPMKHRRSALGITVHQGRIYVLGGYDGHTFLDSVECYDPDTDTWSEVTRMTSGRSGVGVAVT

B1: MAP1A_(1836–1851) peptide, synthetic (peptide)
peptide: PSWLADIPPWVPKDRP
notes: microtubule-associated protein 1A, human, residues 1836-1851; source: synthetic peptide, bought: GeneCust
Consider B1, for which affinity in assay [1] was put at a Ki of 355 µM.

B2: PTTG1_(4–19) peptide from securin, synthetic (peptide, UniProt O95997 4-19, looked up)
peptide: LIYVDKENGEPGTRVV
notes: securin, human, residues 4-19 (NGE containing); source: synthetic peptide, bought: GeneCust
Molecule B2 came in with a Ki in assay [2] of 1 µM.

Take Ac-YDEEKGEFLPIQPAQH-NH2 [NFE2L2 T80K peptide, synthetic]: in assay [2], the “fold loss of affinity against the wild-type peptide” value came out at 1000 fold.

As to Ac-YDEKTGEFLPIQPAQH-NH2 [NFE2L2 E79K peptide, synthetic], the “fold loss of affinity against the wild-type peptide” value in assay [2] came out at 1000 fold.

B3: ITB3_(763–778) peptide from integrin beta‐3, synthetic (peptide)
peptide: AKWDTANNPLYKEATS
notes: integrin beta-3, human, residues 763-778; source: synthetic peptide, bought: GeneCust
With B3, the Ki in assay [3] was 500 µM.
